One may read the stoichiometry N as the number of molecules, sites or subunits per partner or assembly.

Among the data in article PMC10082178 are stoichiometry N and NFAT-luciferase response to rhodocytin (30 nM) in low-expressing CLEC-2-eGFP (100 ng) DT40 cells: percent blocked by LUAS-2 (3 μM, 30 min before rhodocytin) values, retold here.

In assay [1] the target is integrin αIIbβ3 (human (endogenous in platelets)) (UniProt P05106). In words: native gel or EMSA; SMA-PAGE: whole cell SMALPs of resting human platelets (2.5% SMA, NaCl to 500 mM) on native Tris-Glycine gels, western blot with anti-αIIb or anti-CLEC-2 AYP2.
Assay [2] has as its target N-terminal eGFP-tagged human CLEC-2 (CLEC-2-eGFP) (human) (UniProt Q9P126).
UniProt Q9P126, sequence (Q9P126 whole entry): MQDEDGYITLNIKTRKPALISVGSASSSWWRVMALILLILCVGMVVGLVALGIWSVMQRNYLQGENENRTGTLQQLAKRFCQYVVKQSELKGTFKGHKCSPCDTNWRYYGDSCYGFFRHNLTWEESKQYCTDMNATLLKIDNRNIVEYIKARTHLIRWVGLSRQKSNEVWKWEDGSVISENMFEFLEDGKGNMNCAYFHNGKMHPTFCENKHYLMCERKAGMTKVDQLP

Substance “integrin αIIbβ3 (from UniProt P05106 27-788) (complex)” came in with a stoichiometry N in assay [1] of 2.

In assay [2], rhodocytin (complex) registered an NFAT-luciferase response to rhodocytin (30 nM) in low-expressing CLEC-2-eGFP (100 ng) DT40 cells: percent blocked by LUAS-2 (3 μM, 30 min before rhodocytin) of 50%.
